EC50 (pM) Neutralization, South Africa B.1.351, EC50 (pM) Neutralization, N439K and potency in pseudovirus neutralization against REGN10933 data for one substance are collected here from US20230220115A1.

Values joined by “and” are separate entries in the source; they are usually repeats but may differ in a detail not shown here. Equal values may be shown once.

The target of experiment [1] is SARS-CoV-2 spike, South African Δ3 B.1.351 variant (pseudovirus RVP-724) (SARS-CoV-2) (UniProt P0DTC2). Briefly: cell-based or functional assay.
Experiment [2] has as its target SARS-CoV-2 spike, N439K variant (pseudovirus RVP-703) (SARS-CoV-2) (UniProt P0DTC2). Description: cell-based or functional assay.

For “Imdevimab (biosimilar version) (antibody)”, the EC50 (pM) Neutralization, South Africa B.1.351 in experiment [1] was 2.48 pM and 2.37 pM. In experiment [2], the EC50 (pM) Neutralization, N439K was 2260 pM and 2220 pM; the potency in pseudovirus neutralization against REGN10933 stood at 1000 fold.
